According to the supplement of paper PMC10567573:

B1: KRT18 (parent)
chain: PQVRDWSHYFKIIEDLRAQIFANT

Variants of: B1
Test: protein stability index of a GFP-peptide fusion (GPS, HEK-293T) (PSI 1-6); higher = more stable
Conditions: c terminus: a fixed tail appended
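Further: lentivirally expressed fusions sorted by FACS into six bins by GFP to DsRed ratio, PSI derived from sequencing read proportions per bin multiplied by bin number.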

Going from PQVRDWSHYFKMIEDLRAQIFANT [I12M] to PQVRDWSHYFKRIEDLRAQIFANT [I12R], the protein stability index rises from 1.92 to 2.55.

Compared with PQVRDWSHYFKYIEDLRAQIFANT [I12Y], PQVRDWSHYFKNIEDLRAQIFANT [I12N] is higher in protein stability index: 2.2 for the first, 3.55 for the second.

Going from PQVRDWSHYFKEIEDLRAQIFANT [I12E] to PQVRDWSHYFKIAEDLRAQIFANT [I13A], the protein stability index rises from 2.45 to 2.77.

First: PQVRDWSHYFKIQEDLRAQIFANT [I13Q]
Second: PQVRDWSHYFKITEDLRAQIFANT [I13T]
The protein stability index of the first is higher: 2.75 for the first, 2.54 for the second.

Compared with PQVRDWSHYFKIGEDLRAQIFANT [I13G], PQVRDWSHYFKIKEDLRAQIFANT [I13K] is lower in protein stability index: 2.9 for the first, 1.79 for the second.

Going from PQVRDWSHYFKICEDLRAQIFANT [I13C] to PQVRDWSHYFKIWEDLRAQIFANT [I13W], the protein stability index rises from 2.3 to 3.46.

Going from PQVRDWSHYFKIMEDLRAQIFANT [I13M] to PQVRDWSHYFKINEDLRAQIFANT [I13N], the protein stability index rises from 1.62 to 2.38.

Going from PQVRDWSHYFKISEDLRAQIFANT [I13S] to PQVRDWSHYFKIYEDLRAQIFANT [I13Y], the protein stability index falls from 2.15 to 1.72.

Compared with PQVRDWSHYFKIFEDLRAQIFANT [I13F], PQVRDWSHYFKIEEDLRAQIFANT [I13E] is higher in protein stability index: 2.12 for the first, 2.32 for the second.

First: PQVRDWSHYFKIPEDLRAQIFANT [I13P]
Second: PQVRDWSHYFKILEDLRAQIFANT [I13L]
The protein stability index of the first is higher: 2.63 for the first, 2.27 for the second.

Going from PQVRDWSHYFKIREDLRAQIFANT [I13R] to PQVRDWSHYFKIVEDLRAQIFANT [I13V], the protein stability index rises from 2.69 to 2.87.

Going from PQVRDWSHYFKIHEDLRAQIFANT [I13H] to PQVRDWSHYFKIDEDLRAQIFANT [I13D], the protein stability index rises from 2.16 to 2.9.

First: PQVRDESHYFKIIEDLRAQIFANT [W6E]
Second: PQVRDMSHYFKIIEDLRAQIFANT [W6M]
The protein stability index of the first is higher: 2.97 for the first, 2.15 for the second.

First: PQVRDSSHYFKIIEDLRAQIFANT [W6S]
Second: PQVRDQSHYFKIIEDLRAQIFANT [W6Q]
The protein stability index of the first is lower: 2.14 for the first, 2.41 for the second.

First: PQVRDGSHYFKIIEDLRAQIFANT [W6G]
Second: PQVRDDSHYFKIIEDLRAQIFANT [W6D]
The protein stability index of the first is lower: 2.14 for the first, 2.61 for the second.

Compared with PQVRDLSHYFKIIEDLRAQIFANT [W6L], PQVRDFSHYFKIIEDLRAQIFANT [W6F] is higher in protein stability index: 2.22 for the first, 2.3 for the second.

First: PQVRDYSHYFKIIEDLRAQIFANT [W6Y]
Second: PQVRDVSHYFKIIEDLRAQIFANT [W6V]
The protein stability index of the first is higher: 2.13 for the first, 1.92 for the second.

First: PQVRDCSHYFKIIEDLRAQIFANT [W6C]
Second: PQVRDPSHYFKIIEDLRAQIFANT [W6P]
The protein stability index of the first is lower: 1.88 for the first, 2.21 for the second.

Going from PQVRDTSHYFKIIEDLRAQIFANT [W6T] to PQVRDRSHYFKIIEDLRAQIFANT [W6R], the protein stability index falls from 3.16 to 2.13.

Compared with PQVRDKSHYFKIIEDLRAQIFANT [W6K], PQVRDISHYFKIIEDLRAQIFANT [W6I] is higher in protein stability index: 1.97 for the first, 2.48 for the second.

Going from PQVRDHSHYFKIIEDLRAQIFANT [W6H] to PQVRDNSHYFKIIEDLRAQIFANT [W6N], the protein stability index rises from 1.85 to 2.18.

First: PQVRDASHYFKIIEDLRAQIFANT [W6A]
Second: PQVRDWSHYFRIIEDLRAQIFANT [K11R]
The protein stability index of the first is lower: 1.69 for the first, 2.11 for the second.

Going from PQVRDWSHYFMIIEDLRAQIFANT [K11M] to PQVRDWSHYFYIIEDLRAQIFANT [K11Y], the protein stability index falls from 1.42 to 1.35.

Compared with PQVRDWSHYFTIIEDLRAQIFANT [K11T], PQVRDWSHYFSIIEDLRAQIFANT [K11S] is higher in protein stability index: 1.98 for the first, 2.75 for the second.

Compared with PQVRDWSHYFIIIEDLRAQIFANT [K11I], PQVRDWSHYFEIIEDLRAQIFANT [K11E] is lower in protein stability index: 2.25 for the first, 1.52 for the second.

Going from PQVRDWSHYFCIIEDLRAQIFANT [K11C] to PQVRDWSHYFPIIEDLRAQIFANT [K11P], the protein stability index falls from 2.12 to 1.55.

Compared with PQVRDWSHYFVIIEDLRAQIFANT [K11V], PQVRDWSHYFHIIEDLRAQIFANT [K11H] is lower in protein stability index: 2.99 for the first, 2.25 for the second.

Compared with PQVRDWSHYFAIIEDLRAQIFANT [K11A], PQVRDWSHYFDIIEDLRAQIFANT [K11D] is lower in protein stability index: 2.1 for the first, 1.84 for the second.

Going from PQVRDWSHYFWIIEDLRAQIFANT [K11W] to PQVRDWSHYFGIIEDLRAQIFANT [K11G], the protein stability index falls from 3.08 to 1.74.

First: PQVRDWSHYFLIIEDLRAQIFANT [K11L]
Second: PQVRDWSHYFQIIEDLRAQIFANT [K11Q]
The protein stability index of the first is higher: 3.02 for the first, 2.5 for the second.

First: PQVRDWSHYFNIIEDLRAQIFANT [K11N]
Second: PQVPDWSHYFKIIEDLRAQIFANT [R4P]
The protein stability index of the first is lower: 1.49 for the first, 2.47 for the second.

First: PQVIDWSHYFKIIEDLRAQIFANT [R4I]
Second: PQVMDWSHYFKIIEDLRAQIFANT [R4M]
The protein stability index of the first is lower: 2.32 for the first, 2.69 for the second.

Compared with PQVNDWSHYFKIIEDLRAQIFANT [R4N], PQVKDWSHYFKIIEDLRAQIFANT [R4K] is lower in protein stability index: 2.63 for the first, 2.29 for the second.

Compared with PQVQDWSHYFKIIEDLRAQIFANT [R4Q], PQVSDWSHYFKIIEDLRAQIFANT [R4S] is higher in protein stability index: 2.53 for the first, 2.61 for the second.

Going from PQVVDWSHYFKIIEDLRAQIFANT [R4V] to PQVWDWSHYFKIIEDLRAQIFANT [R4W], the protein stability index rises from 2.09 to 2.58.

Compared with PQVGDWSHYFKIIEDLRAQIFANT [R4G], PQVTDWSHYFKIIEDLRAQIFANT [R4T] is lower in protein stability index: 2.37 for the first, 2.13 for the second.

Compared with PQVHDWSHYFKIIEDLRAQIFANT [R4H], PQVYDWSHYFKIIEDLRAQIFANT [R4Y] is lower in protein stability index: 2.25 for the first, 1.61 for the second.

Going from PQVLDWSHYFKIIEDLRAQIFANT [R4L] to PQVRDWSHTFKIIEDLRAQIFANT [Y9T], the protein stability index falls from 1.93 to 1.81.

Compared with PQVRDWSHQFKIIEDLRAQIFANT [Y9Q], PQVRDWSHPFKIIEDLRAQIFANT [Y9P] is lower in protein stability index: 2.42 for the first, 2.36 for the second.

Compared with PQVRDWSHKFKIIEDLRAQIFANT [Y9K], PQVRDWSHSFKIIEDLRAQIFANT [Y9S] is higher in protein stability index: 1.76 for the first, 2.56 for the second.

Going from PQVRDWSHNFKIIEDLRAQIFANT [Y9N] to PQVRDWSHIFKIIEDLRAQIFANT [Y9I], the protein stability index falls from 2.71 to 2.12.

Going from PQVRDWSHVFKIIEDLRAQIFANT [Y9V] to PQVRDWSHAFKIIEDLRAQIFANT [Y9A], the protein stability index falls from 2.48 to 2.24.

PQVRDWSHWFKIIEDLRAQIFANT [Y9W] and PQVRDWSHHFKIIEDLRAQIFANT [Y9H] are the same in protein stability index: 2.5 for the first, 2.5 for the second.

Compared with PQVRDWSHMFKIIEDLRAQIFANT [Y9M], PQVRDWSHDFKIIEDLRAQIFANT [Y9D] is higher in protein stability index: 1.89 for the first, 2.95 for the second.

Going from PQVRDWSHGFKIIEDLRAQIFANT [Y9G] to PQVRDWSHFFKIIEDLRAQIFANT [Y9F], the protein stability index rises from 1.75 to 1.94.

Compared with PQVRDWSHLFKIIEDLRAQIFANT [Y9L], PQVRDWSHCFKIIEDLRAQIFANT [Y9C] is lower in protein stability index: 2.17 for the first, 1.97 for the second.

Going from PQVRDWSHEFKIIEDLRAQIFANT [Y9E] to PQVRDWSHRFKIIEDLRAQIFANT [Y9R], the protein stability index falls from 2.55 to 2.25.
